This note sets out measurements from patent publication US20170290876A1 (Novartis, published 2017).

Changes are numbered by the printed parent chain. Names may count otherwise.

In this assay the target is T1, human VEGF (human, UniProt P15692 207-395, biotinylated (site not stated)).
T1 construct: Biotinylated human VEGF generated internally; also called hVEGF; hVEGF-biotin
T1 sequence: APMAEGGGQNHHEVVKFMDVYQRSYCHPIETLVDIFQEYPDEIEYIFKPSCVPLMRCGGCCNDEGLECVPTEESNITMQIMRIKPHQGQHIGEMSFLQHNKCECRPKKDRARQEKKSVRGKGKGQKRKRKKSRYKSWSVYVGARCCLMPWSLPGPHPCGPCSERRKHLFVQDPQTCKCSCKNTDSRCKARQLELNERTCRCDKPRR
The experiment in a line: Biacore SPR, hVEGF. (SPR reads the build-up and loss of mass on a sensor chip optically.)

B1: NVS4 heavy chain variant D31N (Fab, V domains shown)
VH: EVQLVESGGGLVQPGGSLRLSCTASGFSLTNYYYMTWVRQAPGKGLEWVGFIDPDDDPYYATWAKGRFTISRDNSKNTLYLQMNSLRAEDTAVYYCAGGDHNSGWGLDIWGQGTLVTVSS
VL: EIVMTQSPSTLSASVGDRVIITCQASEIIHSWLAWYQQKPGKAPKLLIYLASTLASGVPSRFSGSGSGAEFTLTISSLQPDDFATYYCQNVYLASTNGANFGQGTKLTVLK
notes: CDR variant of NVS4
By Kd is commonly meant the free concentration of one partner at which half of the binding sites on the other are occupied at equilibrium, for simple one-to-one binding. As usually defined, the koff is the rate constant with which the complex falls apart. A low value points to a long-lived complex. For orientation: kon means a measure of how fast the partners come together. A lower kon goes with slow association. Turning to B1, the Kd is 0.00409 nM, the koff is 4.7e-05 s⁻¹ and the on-rate constant (kon) was determined as 1.15e+07 M⁻¹ s⁻¹.

B2: NVS4 heavy chain variant Y59H (Fab, V domains shown)
VH: B1 VH with N31D, Y59H
VL: B1 VL
notes: CDR variant of NVS4
With B2, the Kd turned out to be 0.0563 nM, the koff came out at 0.000119 s⁻¹ and the kon was determined as 2.11e+06 M⁻¹ s⁻¹.

B3: NVS4 heavy chain variant D57N (Fab, V domains shown)
VH: B1 VH with N31D, D57N
VL: B1 VL
notes: CDR variant of NVS4
Consider B3, for which the affinity, expressed as Kd, was 0.132 nM; the koff worked out at 0.0014 s⁻¹; the kon is 1.06e+07 M⁻¹ s⁻¹.

B4: NVS4 light chain variant Y92F (Fab, V domains shown)
VH: B1 VH with N31D
VL: B1 VL with Y92F
notes: CDR variant of NVS4
In turn, B4 displayed a Kd of 0.0415 nM, a koff of 7.84e-05 s⁻¹ and a kon of 1.89e+06 M⁻¹ s⁻¹.

B5: HC2T (Fab, V domains shown)
VH: B1 VH with D55Q, D56N, D100N
VL: B1 VL
notes: Tagged heavy chain CDR variant HC2 with NVS4 light chain
For the molecule B5, the Kd turned out to be 0.0111 nM, the koff was 0.000862 s⁻¹ and the kon was 7.8e+07 M⁻¹ s⁻¹.

B6: NVS4 heavy chain variant Y59F (Fab, V domains shown)
VH: B1 VH with N31D, Y59F
VL: B1 VL
notes: CDR variant of NVS4
Molecule B6 displayed a Kd of 0.0311 nM, a koff of 0.000104 s⁻¹ and a kon of 3.34e+06 M⁻¹ s⁻¹.

B7: NVS4 heavy chain variant D100N + H101K (Fab, V domains shown)
VH: B1 VH with N31D, D100N, H101K
VL: B1 VL
notes: CDR variant of NVS4
Take B7: the Kd amounted to 0.368 nM, the off-rate (koff) came to 0.000363 s⁻¹ and the on-rate constant (kon) was found to be 983000 M⁻¹ s⁻¹.

B8: NVS4 heavy chain variant D55N (Fab, V domains shown)
VH: B1 VH with N31D, D55N
VL: B1 VL
notes: CDR variant of NVS4
Turning to B8, the equilibrium dissociation constant (Kd) turned out to be 0.103 nM, the koff was found to be 0.000654 s⁻¹ and the kon was 6.35e+06 M⁻¹ s⁻¹.

B9: NVS4 light chain variant S95K (Fab, V domains shown)
VH: B1 VH with N31D
VL: B1 VL with S95K
notes: CDR variant of NVS4
B9 showed a Kd of 0.0819 nM, a koff of 0.000482 s⁻¹ and a kon of 5.88e+06 M⁻¹ s⁻¹.

B10: NVS4 light chain variant T53K (Fab, V domains shown)
VH: B1 VH with N31D
VL: B1 VL with T53K
notes: CDR variant of NVS4
Consider B10, for which binding was characterised by a dissociation constant (Kd) of 0.00282 nM, the koff is 1.3e-05 s⁻¹ and the association rate constant (kon) worked out at 4.6e+06 M⁻¹ s⁻¹.

B11: HC3T (Fab, V domains shown)
VH: B1 VH with D55Q, D56N, D57N, D100N
VL: B1 VL
notes: Tagged heavy chain CDR variant HC3 with NVS4 light chain
B11 showed a Kd of 0.08 nM, a koff of 0.00898 s⁻¹ and a kon of 1.12e+08 M⁻¹ s⁻¹.

B12: HC4T (Fab, V domains shown)
VH: B1 VH with D55Q, D56N, D100N, D108N
VL: B1 VL
notes: Tagged heavy chain CDR variant HC4 with NVS4 light chain
B12 displayed a Kd of 0.00993 nM, a koff of 0.000912 s⁻¹ and a kon of 9.18e+07 M⁻¹ s⁻¹.

B13: NVS4 heavy chain variant D108N (Fab, V domains shown)
VH: B1 VH with N31D, D108N
VL: B1 VL
notes: CDR variant of NVS4
B13: binding was put at a Kd of 0.00985 nM, the koff turned out to be 5.73e-05 s⁻¹ and the kon was 5.82e+06 M⁻¹ s⁻¹.

B14: NVS4 light chain variant T96R (Fab, V domains shown)
VH: B1 VH with N31D
VL: B1 VL with T96R
notes: CDR variant of NVS4
Consider B14, for which the affinity, expressed as Kd, was 0.00244 nM; the koff amounted to 1.37e-05 s⁻¹; the kon is 5.6e+06 M⁻¹ s⁻¹.

B15: NVS4 heavy chain variant D31S (Fab, V domains shown)
VH: B1 VH with N31S
VL: B1 VL
notes: CDR variant of NVS4
The molecule B15 registered a Kd of 0.00886 nM, a koff of 4.67e-05 s⁻¹ and a kon of 5.27e+06 M⁻¹ s⁻¹.

B16: NVS4 heavy chain variant N102K (Fab, V domains shown)
VH: B1 VH with N31D, N102K
VL: B1 VL
notes: CDR variant of NVS4
As for B16, the Kd was 0.0169 nM, the koff stood at 4.84e-05 s⁻¹ and the kon amounted to 4.77e+06 M⁻¹ s⁻¹.

B17: NVS4 heavy chain variant D56N (Fab, V domains shown)
VH: B1 VH with N31D, D56N
VL: B1 VL
notes: CDR variant of NVS4
B17: binding was put at a Kd of 0.00765 nM, the koff is 4.84e-05 s⁻¹ and the kon amounted to 6.33e+06 M⁻¹ s⁻¹.

B18: HC8T (Fab, V domains shown)
VH: B1 VH with N31K, D53K, D56K, D57K, Y59K
VL: B1 VL
notes: Tagged heavy chain CDR variant HC8 with NVS4 light chain
In the case of B18, the equilibrium dissociation constant (Kd) worked out at 0.948 nM, the koff was determined as 0.0026 s⁻¹ and the on-rate (kon) was 2.74e+06 M⁻¹ s⁻¹.

B19: NVS4 heavy chain variant D55N + D56N (Fab, V domains shown)
VH: B1 VH with N31D, D55N, D56N
VL: B1 VL
notes: CDR variant of NVS4
B19 had a dissociation constant (Kd) of 0.108 nM, a koff of 0.000951 s⁻¹ and a kon of 8.82e+06 M⁻¹ s⁻¹.

B20: HC1T (Fab, V domains shown)
VH: B1 VH with N31S, D55Q, D56N, D57N, D100S, D108N
VL: B1 VL
notes: Tagged heavy chain CDR variant HC1 with NVS4 light chain
Take B20: binding was characterised by a dissociation constant (Kd) of 0.0883 nM, the koff was determined as 0.00852 s⁻¹ and the kon was determined as 9.65e+07 M⁻¹ s⁻¹.

B21: NVS4 heavy chain variant D108Q (Fab, V domains shown)
VH: B1 VH with N31D, D108Q
VL: B1 VL
notes: CDR variant of NVS4
Molecule B21 returned a Kd of 0.00668 nM, a koff of 4.54e-05 s⁻¹ and a kon of 6.8e+06 M⁻¹ s⁻¹.

B22: NVS4 light chain variant H30K (Fab, V domains shown)
VH: B1 VH with N31D
VL: B1 VL with H30K
notes: CDR variant of NVS4
B22 returned a Kd of 0.0355 nM, a koff of 0.000149 s⁻¹ and a kon of 4.22e+06 M⁻¹ s⁻¹.

B23: NVS4 heavy chain variant D100N (Fab, V domains shown)
VH: B1 VH with N31D, D100N
VL: B1 VL
notes: CDR variant of NVS4
Consider B23, for which the affinity, expressed as Kd, was 0.00549 nM; the koff amounted to 2.57e-05 s⁻¹; the on-rate (kon) was found to be 4.68e+06 M⁻¹ s⁻¹.

B24: NVS4 heavy chain variant D31S + Y32K (Fab, V domains shown)
VH: B1 VH with N31S, Y32K
VL: B1 VL
notes: CDR variant of NVS4
As to B24, the Kd came out at 0.185 nM, the koff was 0.000958 s⁻¹ and the kon is 5.18e+06 M⁻¹ s⁻¹.

B25: HC7T (Fab, V domains shown)
VH: B1 VH with N31K, D53K, D55K, D57K, Y60K
VL: B1 VL
notes: Tagged heavy chain CDR variant HC7 with NVS4 light chain
B25 came in with a Kd of 0.554 nM, a koff of 0.186 s⁻¹ and a kon of 3.37e+08 M⁻¹ s⁻¹.

B26: HC1.1T (Fab, V domains shown)
VH: B1 VH with N31S, D55Q, D56N, D57N, D108N
VL: B1 VL
notes: Tagged heavy chain CDR variant HC1.1 with NVS4 light chain
In turn, B26 came in with a Kd of 0.0779 nM, a dissociation rate constant (koff) of 0.00854 s⁻¹ and a kon of 1.1e+08 M⁻¹ s⁻¹.

B27: HC6T (Fab, V domains shown)
VH: B1 VH with D55Q, D56N, D57Q, D100N, D108N
VL: B1 VL
notes: Tagged heavy chain CDR variant HC6 with NVS4 light chain
As to B27, the Kd was 0.0499 nM, the koff turned out to be 0.00624 s⁻¹ and the kon stood at 1.25e+08 M⁻¹ s⁻¹.

B28: NVS4 heavy chain variant Y34H (Fab, V domains shown)
VH: B1 VH with N31D, Y34H
VL: B1 VL
notes: CDR variant of NVS4
Consider B28, for which the Kd is 0.15 nM, the koff was found to be 0.000445 s⁻¹ and the on-rate (kon) stood at 2.97e+06 M⁻¹ s⁻¹.

B29: NVS4 heavy chain variant H101K (Fab, V domains shown)
VH: B1 VH with N31D, H101K
VL: B1 VL
notes: CDR variant of NVS4
Molecule B29 gave a Kd of 0.593 nM, a koff of 0.000773 s⁻¹ and a kon of 1.3e+06 M⁻¹ s⁻¹.

B30: NVS4 heavy chain variant D55Q (Fab, V domains shown)
VH: B1 VH with N31D, D55Q
VL: B1 VL
notes: CDR variant of NVS4
As for B30, the affinity, expressed as Kd, was 0.0823 nM; the koff is 0.000541 s⁻¹; the kon was 6.57e+06 M⁻¹ s⁻¹.

B31: NVS4 light chain variant I28K (Fab, V domains shown)
VH: B1 VH with N31D
VL: B1 VL with I28K
notes: CDR variant of NVS4
B31 yielded a Kd of 0.00534 nM, an off-rate constant (koff) of 3e-05 s⁻¹ and an on-rate constant (kon) of 5.62e+06 M⁻¹ s⁻¹.

B32: HC1.2T (Fab, V domains shown)
VH: B1 VH with N31S, D55Q, D56N, D57N
VL: B1 VL
notes: Tagged heavy chain CDR variant HC1.2 with NVS4 light chain
B32 returned a Kd of 0.0414 nM, a koff of 0.00456 s⁻¹ and a kon of 1.1e+08 M⁻¹ s⁻¹.

B33: NVS4 heavy chain variant D55Q + D56N (Fab, V domains shown)
VH: B1 VH with N31D, D55Q, D56N
VL: B1 VL
notes: CDR variant of NVS4
In the case of B33, the Kd came out at 0.0909 nM, the off-rate constant (koff) turned out to be 0.000656 s⁻¹ and the on-rate (kon) is 7.22e+06 M⁻¹ s⁻¹.
